Reference: the supplement of paper PMC12764529
± gives the half width of the 95% confidence interval.

Assay: folding stability dG unfold from chymotrypsin proteolysis; higher = more stable
In short: (§1)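 Designed mini-proteins with no cysteine and under 80 residues were kept only if AlphaFold2 dimer inter-PAE was above 15. In a PA-tagged cDNA display construct, they were digested with trypsin and chymotrypsin and then sequenced. K50 was inferred by Bayesian fitting of counts, and unfolding free energy was derived per protease or combined against a sequence-predicted unfolded-state K50 and a shared folded-state K50.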

Going from “SAGGSAGGSAGKPVLKLTVTLPNGLTVTVTINPDGEITVEIRPLPPPPPPVRTYSDEELKSAGGSAGGSAGG [r11_1015_TrROS_Hall]” to “SAGGMVDIYFPDAVIDDSGTKEDILEQLEKVTGKPIPEELREEILKGKTVEEIVELLKKRGFDVRVDSAGGS [r16_601_TrMRF]”, the “folding stability dG unfold” value rises from 2.75 ± 0.16 kcal/mol to 3.4 ± 0.059 kcal/mol.

First: SAGGSAGGSGITPAAKKIAAEIEKKYPNEKIKVEEELLPNGYLKIKVTTDNGKKYEIIIKVGGSAGGSAGGS [r20_210_TrMRF]
Second: SAGGSAGGSAMVILTPDGYLKVIKSITVEEALDPETDEPVLDVKAEVEVIPLPSLDDPAFKESAGGSAGGSA [r18_6_TrMRF]
The “folding stability dG unfold” value of the first is higher: 3.51 ± 0.053 kcal/mol for the first, 0.447 ± 0.087 kcal/mol for the second.

Compared with “SAGGMLIIRIEIEIEKNGKKEKKEILIVAKTEEEAKKAAEKIAKEKGLKIKKIEILPFKSLEELKKALSAGG [r13_949_TrROS_Hall]”, “SAGGKTITIKVKLENGEEKTIEVKVDEVKIEKKNGKLVITFKDGKKITIPLDKIEDMSEDEIKKLLEKSAGG [r13_925_TrROS_Hall]” is lower in “folding stability dG unfold” value: 3.45 ± 0.037 kcal/mol for the first, 3.03 ± 0.18 kcal/mol for the second.

First: SAGGMKIIPITPEMIEEAKKLGLTPEDEAFEFEVTLPNGEVLRGTLIIPPDNPDIPVEAEPYLNLDKSAGGS [r16_497_TrMRF]
Second: SAGGSAGGSAGEEEELPLVIRVRFKGPEEVEIEIEAESLEDALAAIESLPDIEEIEILPRSAGGSAGGSAGG [r11_587_TrROS_Hall]
The “folding stability dG unfold” value of the first is lower: 0.904 ± 0.092 kcal/mol for the first, 1.982 ± 0.0079 kcal/mol for the second.

First: SDPILEILKDAFQEFGIPVQVSIEPDPDGKRVIPIRIMSPKDMDENGMKMQEQTFPIKVNGKKWRVEISWSA [r9_489_TrROS]
Second: SAGRLTTELGDVKAEVFRIPNLNLSLVVYEYPTSVRTLLATEHGDTVTIHPLTETPLPLPPLSDLKSLSAGG [r19_328_TrMRF]
The “folding stability dG unfold” value of the first is higher: 1.31 ± 0.14 kcal/mol for the first, -0.064 ± 0.11 kcal/mol for the second.

First: SAGGSAGGSAMKKVTITLLDPRNGKEHTVTLPADITEEEAKAAAEAVAAERGWEVLSIEFEPSAGGSAGGSA [r18_322_JUSTAS]
Second: SAGGSAGGSPGPGTEVEVRYRHPATGRWYPGVAVFTPDGSIRVYFPALGTTVTVPPHTVEPVPSAGGSAGGS [r12_726_TrMRF]
The “folding stability dG unfold” value of the first is higher: 3.43 ± 0.1 kcal/mol for the first, 1.93 ± 0.031 kcal/mol for the second.

First: SAGGKPKKTILIPLIVPPGKPESAIKALAEFLEAKGYELERIEPVPVGDRLRLVAIFRKPDGTEIKVGSAGG [r13_421_TrMRF]
Second: SAGGSAGGNPVRYRVTITVTSPTGGSPVIELELDDPAELAEVEALAAELAAAPVTTTVTVEPIGSAGGSAGG [r6_743_JUSTAS]
The “folding stability dG unfold” value of the first is higher: 1.9 ± 0.11 kcal/mol for the first, 0.584 ± 0.14 kcal/mol for the second.

Compared with “SAGGSAGGSAGSVTITRDYPTPDGTRTTVTITFPSLERSPSVKYKLVSVSPDGNYVLSPESAGGSAGGSAGG [r11_733_JUSTAS]”, “SAGGSAGGSAGGWIMVPIEIKVDLKWGPNGQHEIETVPILIIIRIPPPPVPEEQAEKNNGSAGGSAGGSAGG [r11_318_TrROS]” is higher in “folding stability dG unfold” value: 1.61 ± 0.17 kcal/mol for the first, 2.68 ± 0.07 kcal/mol for the second.

Assay: folding stability dG unfold (combined trypsin and chymotrypsin); higher = more stable
In short: as §1

Compared with “SMKITIVNKNGEKKEIEVTAKDGKKYKITVFKDKELVIKVEETTPDGKKKPVKVIKAKSLEEALEALKKASA [r9_942_TrROS_Hall]”, “SAGGSAGGWKIIEVDPKKGVVMIEMDPEEGNWYVRVPNGPIQRFDSPEEIEEKFGFPVEIYPLPSAGGSAGG [r6_753_TrROS]” is lower in “folding stability dG unfold” value: 2.38 ± 0.32 kcal/mol for the first, 1.14 ± 0.17 kcal/mol for the second.

Going from “SAGGSAGGSAGMTLEIEVDPDNKVIELKIYIGGKPVEMTIVVTPNSGYIRIPDGGWIPIESAGGSAGGSAGG [r11_395_TrROS]” to “SAGGSAGGSAGMNITITFPDGTVVEIPDVPPEYADVTPEKLKEEVLKKYPNVNVKVSPNGSAGGSAGGSAGG [r17_42_JUSTAS]”, the “folding stability dG unfold” value falls from 2.85 ± 0.083 kcal/mol to 0.101 ± 0.22 kcal/mol.

Compared with “SAGGSAGGSADWQKLEYPFPPGMPLDNIKEELRDLFPGKKPTIEIDKIEPHNGQYWIKITVKSAGGSAGGSA [r18_360_TrROS]”, “SMPKIEVKIEYDEETGEITVEIRVPETEEEALEALRKLAEEAGLEVEVEEVEIEEVDGELVIRVKVRIKPSA [r9_164_TrROS_Hall]” is higher in “folding stability dG unfold” value: 0.291 ± 0.075 kcal/mol for the first, 3.08 ± 0.28 kcal/mol for the second.

Compared with “SQNGGPKRKVTITIIIVIPPGQRNPDGKPRPSVEELARYLQKELQEQFPGNKDVKIDITIIPLGDPEQIKSA [r9_329_TrROS]”, “SAGPGWIMIRVKIKMRKWKDGKPVRRPIEIPIMAPADGDPEAARRKAEELAEFLAQMYGMEIEDVEIFPSAG [r5_497_TrROS]” is higher in “folding stability dG unfold” value: 2.33 ± 0.21 kcal/mol for the first, 3.55 ± 0.065 kcal/mol for the second.

First: SAGKPKIIEEKTITVPPGATLTIEFPPEVKRIEIINLDTGKTETIEIKPGEKLTFTFPPGSTVRVRVLSAGG [r19_118_TrROS_Hall]
Second: SAGGKILIYPGSIEEAIEALKANPNTTVLVISPDGTLIEITVEELGPGPFKIDIKVIPLLPPLKPDEASAGG [r13_56_TrMRF]
The “folding stability dG unfold” value of the first is higher: 3.65 ± 0.09 kcal/mol for the first, 1.97 ± 0.069 kcal/mol for the second.

First: SAGGEEELRKAAEIAAAPPLEIEPVLETFTVETEEGPRVVLVISPVVRFPGDGVLIPNPVLVIPAEELSAGG [r19_11_TrMRF]
Second: SAGMMKFPPGAKIKIVNKETGEEKEITLPEGAEVEFDEETGEVHIRVKVDGKEYRFTFKNGEIVEVEEVSAG [r5_22_TrROS_Hall]
The “folding stability dG unfold” value of the first is lower: 0.699 ± 0.11 kcal/mol for the first, 3.73 ± 0.3 kcal/mol for the second.

Compared with “SAGGSAGGSAGGMREVIRRPEASGEVTVEPLPEDERRPVDFGSDGVVLWREGDEVVVEPSAGGSAGGSAGGS [r10_817_JUSTAS]”, “PKIVEILDAKRTPDGSLVIKIKIEPPEPNVKIKVIVKTPNSFKVYEIDPTKTTLEITIPGNVTNPKIEVFGS [r1_428_TrMRF]” is higher in “folding stability dG unfold” value: 0.562 ± 0.08 kcal/mol for the first, 2.52 ± 0.34 kcal/mol for the second.

First: SAGGSMTITITNEDGSTYEITVEEENGKLRITITVDGKTVEIEFDKETGKITIRYNGKTFTLTIKPSAGGSA [r2_194_TrROS_Hall]
Second: SAGGSAGGSAGKPVLKLTVTLPNGLTVTVTINPDGEITVEIRPLPPPPPPVRTYSDEELKSAGGSAGGSAGG [r11_1015_TrROS_Hall]
The “folding stability dG unfold” value of the first is higher: 5 ± 0.42 kcal/mol for the first, 2.1 ± 0.31 kcal/mol for the second.

“SAGGMVDIYFPDAVIDDSGTKEDILEQLEKVTGKPIPEELREEILKGKTVEEIVELLKKRGFDVRVDSAGGS [r16_601_TrMRF]” and “SAGGSAGGSGITPAAKKIAAEIEKKYPNEKIKVEEELLPNGYLKIKVTTDNGKKYEIIIKVGGSAGGSAGGS [r20_210_TrMRF]” are within error of each other in “folding stability dG unfold” value: 3.13 ± 0.12 kcal/mol for the first, 3.23 ± 0.077 kcal/mol for the second.

First: SAGGSAGGSAMVILTPDGYLKVIKSITVEEALDPETDEPVLDVKAEVEVIPLPSLDDPAFKESAGGSAGGSA [r18_6_TrMRF]
Second: SAGGMLIIRIEIEIEKNGKKEKKEILIVAKTEEEAKKAAEKIAKEKGLKIKKIEILPFKSLEELKKALSAGG [r13_949_TrROS_Hall]
The “folding stability dG unfold” value of the first is lower: 0.396 ± 0.24 kcal/mol for the first, 3.11 ± 0.089 kcal/mol for the second.

First: SAGGKTITIKVKLENGEEKTIEVKVDEVKIEKKNGKLVITFKDGKKITIPLDKIEDMSEDEIKKLLEKSAGG [r13_925_TrROS_Hall]
Second: SAGGMKIIPITPEMIEEAKKLGLTPEDEAFEFEVTLPNGEVLRGTLIIPPDNPDIPVEAEPYLNLDKSAGGS [r16_497_TrMRF]
The “folding stability dG unfold” value of the first is higher: 2.97 ± 0.2 kcal/mol for the first, 0.703 ± 0.18 kcal/mol for the second.

Going from “SAGGSAGGSAGEEEELPLVIRVRFKGPEEVEIEIEAESLEDALAAIESLPDIEEIEILPRSAGGSAGGSAGG [r11_587_TrROS_Hall]” to “SDPILEILKDAFQEFGIPVQVSIEPDPDGKRVIPIRIMSPKDMDENGMKMQEQTFPIKVNGKKWRVEISWSA [r9_489_TrROS]”, the “folding stability dG unfold” value falls from 1.61 ± 0.055 kcal/mol to 1.41 ± 0.11 kcal/mol.

Compared with “SAGRLTTELGDVKAEVFRIPNLNLSLVVYEYPTSVRTLLATEHGDTVTIHPLTETPLPLPPLSDLKSLSAGG [r19_328_TrMRF]”, “SAGGSAGGSAMKKVTITLLDPRNGKEHTVTLPADITEEEAKAAAEAVAAERGWEVLSIEFEPSAGGSAGGSA [r18_322_JUSTAS]” is higher in “folding stability dG unfold” value: 0.0233 ± 0.1 kcal/mol for the first, 3.57 ± 0.071 kcal/mol for the second.

Compared with “SAGGSAGGSPGPGTEVEVRYRHPATGRWYPGVAVFTPDGSIRVYFPALGTTVTVPPHTVEPVPSAGGSAGGS [r12_726_TrMRF]”, “SAGGKPKKTILIPLIVPPGKPESAIKALAEFLEAKGYELERIEPVPVGDRLRLVAIFRKPDGTEIKVGSAGG [r13_421_TrMRF]” is lower in “folding stability dG unfold” value: 1.93 ± 0.053 kcal/mol for the first, 1.78 ± 0.069 kcal/mol for the second.

First: SAGGSAGGNPVRYRVTITVTSPTGGSPVIELELDDPAELAEVEALAAELAAAPVTTTVTVEPIGSAGGSAGG [r6_743_JUSTAS]
Second: SAGGSAGGSAGSVTITRDYPTPDGTRTTVTITFPSLERSPSVKYKLVSVSPDGNYVLSPESAGGSAGGSAGG [r11_733_JUSTAS]
The “folding stability dG unfold” value of the first is lower: 0.807 ± 0.072 kcal/mol for the first, 1.91 ± 0.28 kcal/mol for the second.

For “SAGGSAGGSAGGWIMVPIEIKVDLKWGPNGQHEIETVPILIIIRIPPPPVPEEQAEKNNGSAGGSAGGSAGG [r11_318_TrROS]”, the “folding stability dG unfold” value was 2.81 ± 0.19 kcal/mol.
